The values that follow come from paper PMC7997955 (2021).

Usually IC50 stands for the concentration needed to halve the response being measured.

This assay addresses Full-length human AURKA^T288V (human, UniProt O14965 1-403, T288V). Nature of the assay: FP; competition with FITC-Tpx2 1-43.

Chain of Full-length human AURKA^T288V (O14965 other isoform, or with tags, fused parts or gaps T288V | T288V): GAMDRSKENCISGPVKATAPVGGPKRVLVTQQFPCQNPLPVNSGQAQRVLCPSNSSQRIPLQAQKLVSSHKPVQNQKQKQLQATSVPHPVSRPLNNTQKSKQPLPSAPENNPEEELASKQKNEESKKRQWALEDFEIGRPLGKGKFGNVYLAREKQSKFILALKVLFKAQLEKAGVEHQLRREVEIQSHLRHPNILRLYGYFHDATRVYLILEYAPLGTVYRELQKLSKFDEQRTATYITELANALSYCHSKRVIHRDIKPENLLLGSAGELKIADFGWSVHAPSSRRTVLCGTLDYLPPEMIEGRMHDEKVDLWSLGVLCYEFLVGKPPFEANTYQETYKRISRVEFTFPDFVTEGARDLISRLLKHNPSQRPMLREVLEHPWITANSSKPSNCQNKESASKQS

B1: pBora^18–120 (domain or fragment)
chain: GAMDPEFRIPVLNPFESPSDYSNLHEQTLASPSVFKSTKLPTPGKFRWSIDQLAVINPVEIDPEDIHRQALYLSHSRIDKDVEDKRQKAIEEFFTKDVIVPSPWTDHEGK
modifications: phosphorylated (kinase and sites not stated for the fluorescence polarisation assay)
In turn, B1 returned a half-inhibitory concentration (IC50) of 680 nM.
